From the nanobody polyreactivity screen of Harvey et al. (2022)

Assay: yeast display, Sf9 membrane polyspecificity reagent, FACS + sequencing; frameworks hold sequencing errors
How it was run: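 Genes from sorted yeast were amplified by colony PCR, read by MiSeq 2 × 250 sequencing and filtered on CDR length. These cells carried a synthetic nanobody library in Saccharomyces cerevisiae BJ5465 and were sorted by FACS into low and high (top ~1%) gates on anti-HA and streptavidin fluorescence. Polyreactivity is labelled according to the gate of origin.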
With “QVQLVESGGGLVQAGGSHRLSCSASGQTFVKNAMGWYRQAPGKERELVAAITVSGSRTYYADSVKGRFTISRDNAKNTVYLQMNSLKPEDTAVYYCAAKTADRFAPYYYWGQGTQVTVSS” the “polyreactivity (PSR sort gate)” value was “high polyreactivity”. For “QVQLVESGGGLVQAGGSHRLSSAASARIFAVNVMGWYRQAPGKERELVAAISWSDDIKYYADSVKGRFTISRDNAKNTVYLQMNSLKPEDTAVYYCAADFLPLHADDDDEDYWGQGTQVTVST”, the “polyreactivity (PSR sort gate)” value was “high polyreactivity”. With “QVQLVESGGGLVQAGGSHRLSSAASGGIFGKYAMGWYRQAPGKEMDLVAAITWNGGRTYYADSVKGRFTISRDNAKYTLYLQMNSLKPVDTAVHFCAVDDAYPDRYDYWGQGSQVTVSS” the “polyreactivity (PSR sort gate)” value was “high polyreactivity”. With “QVQLVESGGGLVQAGGSHRVSCAASGYIFLHYAMGWYRQATGKEREFVAAITYSGGNTYYADSVKGRFTISRDNAKNTVYLQMISLKPEDTAGYYCAKTRIYSKHWTEPYFYRVDSWGQGTQVTVSS” the “polyreactivity (PSR sort gate)” value was “high polyreactivity”. With “QVQLVESGGGLVQAGGSIRFSCAASGRIFAHYAMGWYRPAPGKERELVAAISSSGTRTYYADSVKGRFTISRDNAKNTVYLQMNSLKPEDTAVFYCAKDSYHTVWGGYWGQGTQVTVSS” the “polyreactivity (PSR sort gate)” value was “high polyreactivity”. For “QVQLVESGGGLVQAGGSIRLRCAASGITFYYYAMGWYRQAPAKERELVAAISRSGITYYADSVKGRFTISRDNAKNSVYLQMNSLKPEDTAVYYGAAGRRFDQSMYYGGQGTQVTVSS”, the “polyreactivity (PSR sort gate)” value was “high polyreactivity”. With “QVQLVESGGGLVQAGGSIRLSCAASGFIFKWYAMGWYRQAPGKERELVAVINRSGSTYYADSVKGRFTISRDNAKNTVYLQMNSLKPEDTAVYYCAAVQQYSSVYYYTYDYWGQGTQVTVSS” the “polyreactivity (PSR sort gate)” value was “high polyreactivity”. With “QVQLVESGGGLVQAGGSIRLSCAASGFIFWANAMGWYIQAPGKERELVAAISGSGGRTYYADSVKGRFTISRDNAKNTVYLQMNSLKPEDTAVYYCAAKVSAWKKKSEMNYWGQGTQVTVSS” the “polyreactivity (PSR sort gate)” value was “high polyreactivity”. With “QVQLVESGGGLVQAGGSIRLSCAASGFNFRWYAMGWYRQAPGKERELVAAIRSGGSTNYADSVKGRFTIARDNAKNTVSLQMNSLKPEDRAVYYCAAERTSYYYSNDYWGQGTQVTVSS” the “polyreactivity (PSR sort gate)” value was “high polyreactivity”. With “QVQLVESGGGLVQAGGSIRLSCAASGGTFSYYAMGWYRQAPGKESELVAAISGNGDTTYYADSVKGRFTISRDNAKNTDYVQMNSLKPEDTAVYYCATAFSYGGGAYDYWGQGTLVTVSS” the “polyreactivity (PSR sort gate)” value was “low polyreactivity”. With “QVQLVESGGGLVQAGGSIRLSCAASGIIFLGNAMGWYRQAPGIERELVAAITASGTTSYYADSVKGRFTISRDNAKNTVSLQMNSLKPEDTAVDYCAAQSTWYDFYYWVQGTQVTVSS” the “polyreactivity (PSR sort gate)” value was “low polyreactivity”. In the case of “QVQLVESGGGLVQAGGSIRLSCAASGITFYKYAMGWYRQAPGKERELVAAISGNGGSTYYADSVKGRFTISRDYAKNTVYLQMNSLKPEDTAVYFCNRGYRRTDNYWGQGTQVTVSS”, the “polyreactivity (PSR sort gate)” value was “high polyreactivity”. In the case of “QVQLVESGGGLVQAGGSIRLSCAASGITFYRNAMGWYRQAPGKEKELVAAITWNGGRTYYADSVKGRFTISRDNAKNTVYLQMNSLKPEDTAVYYCAAAYPTYRHYYWGQGTQVTVSS”, the “polyreactivity (PSR sort gate)” value was “low polyreactivity”. In the case of “QVQLVESGGGLVQAGGSIRLSCAASGRIFAYNPMGWSRQAPGKERELVAVITSGRSTNYADSVKGRFTISRDNEKNNVYLQMNSLKPVDTAFYYCAKRPYGRSGGSRYDYWGQGTQGTVSS”, the “polyreactivity (PSR sort gate)” value was “high polyreactivity”. For “QVQLVESGGGLVQAGGSIRLSCAASGRIFGRYAMGWYRQAPGKEMELVATITWRGGITYYADSVKGRFTISRDNAKNTVYLQLKRLKPEDNAVYYCAAGYGRIPYEYWGQGTQVTVSS”, the “polyreactivity (PSR sort gate)” value was “high polyreactivity”. With “QVQLVESGGGLVQAGGSIRLSCAASGRTFKKYAMGWYRQAPGKERELVAAITGSGGSTYYADSVKGRFTISRDNAKNTVYLQINSLKPEDTAVYYCAAYAYGVGHSQDGGNYWGQGNQVTVSS” the “polyreactivity (PSR sort gate)” value was “low polyreactivity”. With “QVQLVESGGGLVQAGGSIRLSCAASGSIFTINTMGWYRQAPGKERELVAAISKRGGSTYYADSVKGRFTISRDNAKNTVYLQKNSLKPEDTAVYYCAARQFYKYYYWGQGTQVTVSS” the “polyreactivity (PSR sort gate)” value was “high polyreactivity”. With “QVQLVESGGGLVQAGGSIRLSCAASGSIYKSNTMGRYRQAPGKEREFVAAISWGGGSTYYADSVKGRFTISRDNAKHTVYLQMNSLKPEDTAVYYCATRPGTRPAYDYWGQGTQVTVSS” the “polyreactivity (PSR sort gate)” value was “high polyreactivity”. For “QVQLVESGGGLVQAGGSIRLSCAASGSTFYLYAMGWSRPAPGKERELVATITNGGGTNYADSVKGRFTISRDNEKNTVYIQMNTLKPEDTAVYYCAATWYHRDGDYWGQGTQVTVSS”, the “polyreactivity (PSR sort gate)” value was “low polyreactivity”. In the case of “QVQLVESGGGLVQAGGSISLSCAASGYIFHVYAMGWYRQAPGKERELVAAITSSGGSTYYADSVKGRFTISRDNAKNTVYLQMNSLKPEDTAVYYCAAAPCSFRYRYVVFTFGYWGQGTQVTVSS”, the “polyreactivity (PSR sort gate)” value was “high polyreactivity”. For “QVQLVESGGGLVQAGGSLCLSCAASGIFVYNAMGWYRQAPGKEREFVAAINKSGASTFYADSVKGRFTISRDNAKNTVYLQMNSLKPEDTAVYYCRERDYWGQGTQVTVSS”, the “polyreactivity (PSR sort gate)” value was “low polyreactivity”. For “QVQLVESGGGLVQAGGSLGLSCAASGFIFDAYAMGWYRQAPGKERELVAGISIGGRTNYADSVKGRFTISRDNAKNTVYLQMNSLKPEDTAVYYCAARNYRYYYGSYYRGPITNYEYWGQGTQVTVSS”, the “polyreactivity (PSR sort gate)” value was “low polyreactivity”. In the case of “QVQLVESGGGLVQAGGSLGLSCAASGGILQSYAMGWYRQAPGKERELVATITYSAGSTYYADSVKGRFTISRDNAKNTVYLQMKSLKPEDTAVYVCAARRIPPARYKGYYYWGQGTQLTVSS”, the “polyreactivity (PSR sort gate)” value was “high polyreactivity”. In the case of “QVQLVESGGGLVQAGGSLGLSCAASGIIFGKYAMGWYRQAPGKERELVASITVDGGTTYYADSVKGLFTISRDNANNTVYLQMNSLKPEDTAVYYCATGVFAELWFDYWPYDYWGQGTQVTVSS”, the “polyreactivity (PSR sort gate)” value was “high polyreactivity”. For “QVQLVESGGGLVQAGGSLGLSCAASGITFYTYPMGLYRQAPGKERELVAAISRRGGSTYYADSVKGRFTISRDNAKNTVYLHLNSLKPEDTAVYYCNAVADCYSGFDGYYYWGQGTQVTVSS”, the “polyreactivity (PSR sort gate)” value was “high polyreactivity”. For “QVQLVESGGGLVQAGGSLGLSCAASGRIFARYAMGWYRQAPGKERELVAAITKSVGSTYYADSVKGRFTISRDNAKNTVYLQMNIMKPEDTAVYYCAARYRGGYYFGYETYYYWGQGTQVTVSS”, the “polyreactivity (PSR sort gate)” value was “high polyreactivity”. In the case of “QVQLVESGGGLVQAGGSLGLSCAASGRTFGYYAMGWYRQAPGTERALVAAIRSTGSTNYADSVKGRFTISRDNAKNTVYLQMNSLIPEDTAVYYCYAKRRFRYDYWGQGTQVTVSS”, the “polyreactivity (PSR sort gate)” value was “low polyreactivity”. For “QVQLVESGGGLVQAGGSLGLSCAASGSTFAEYAMGWYRQAPGKERELVAVISFGDGNTYYADSVKGRVTISRDNAKNTVYLQMNSLKPEDTAVYYCNAADDSVDQSVRTLRQYEYWGQGTQVTVSS”, the “polyreactivity (PSR sort gate)” value was “low polyreactivity”. With “QVQLVESGGGLVQAGGSLGLSCAASGSTLSAYVMGWYRQAPGKEREFVAAITWSGGNTYYADSVKGRFTISRDNAKHTVYLQMNSLKPEDTAVYFCARRGYRQSGDYWGQGTQVTVSS” the “polyreactivity (PSR sort gate)” value was “low polyreactivity”. In the case of “QVQLVESGGGLVQAGGSLHLSCAASGSIFPYNLMGWYRQAPGKERELVAAISNTGSTNYADSVKGRFTISRDNAMNTVYFQMNSLKPDDTAVYYCNADGSYGFWSLLDYDYWGQGTQVTVSS”, the “polyreactivity (PSR sort gate)” value was “low polyreactivity”. In the case of “QVQLVESGGGLVQAGGSLLFSCAASGHIFRTYAMGWYRQAPGKERELVAAINIGGTTDYADSVKGRFTISRDNAKNTVYLQMNSLKPEDTAVYYCNAYNRFWEYVYWGQGTQVTVSS”, the “polyreactivity (PSR sort gate)” value was “low polyreactivity”. With “QVQLVESGGGLVQAGGSLLLICAASGITFWSYAMGWYRQAPGKERELVAAISSTGSTNYADSVKGRFTISRDNAKNTVYLQMNSLKPEDTAVYYCAAEYTFWWSRTGKYYYWGQGTQVTVSS” the “polyreactivity (PSR sort gate)” value was “high polyreactivity”. For “QVQLVESGGGLVQAGGSLLLSCAASGFTFDYYAMGWYRQAPGKERELVAAITWSGGSTYYADSVKGRFTISRDNAKNTVYLQMNSLKPEDTAVYYCNAYYYHLYRGSTSYDYWGQGTQVTVSS”, the “polyreactivity (PSR sort gate)” value was “low polyreactivity”. In the case of “QVQLVESGGGLVQAGGSLLLSCAASGFTFGFNAMGWYRQAPGQERELGAAISRGGSTNYADSVKGRFTISRDNAKNTVYVQMNSLKPEDTAVYDCAADFITYVFRFYYWGQGTLVTVSS”, the “polyreactivity (PSR sort gate)” value was “low polyreactivity”. In the case of “QVQLVESGGGLVQAGGSLLLSCAASGFTFSYYAMGWYRQAPGKERDLVAAISWDGDSTYYADSVKGRFTISRDNAKNTVYLQMNSLKPEDTAVYYSAAEFSYYWDGYDYWGQGTQVTVSS”, the “polyreactivity (PSR sort gate)” value was “high polyreactivity”. With “QVQLVESGGGLVQAGGSLLLSCAASGFTFTVYAMGWYILAPGKERELVAAISWNGGSTYYADSVKGRFTISRDNAKNTVYLQMNSLKPEDTAVYYCNTLQPYLYDYWGQGTQVTVSS” the “polyreactivity (PSR sort gate)” value was “high polyreactivity”. In the case of “QVQLVESGGGLVQAGGSLLLSCAASGFTLPSYAMGWYIQAPGKERELVAAISSTGRTYYADSVKGRFTISRDNAKNTVYLQMNSLKPEDTAVYYCAARQDTWDAYLSTGEFDYWGQGTQVTVSS”, the “polyreactivity (PSR sort gate)” value was “high polyreactivity”. For “QVQLVESGGGLVQAGGSLLLSCAASGGTFRVYAMGSYRQAPVKERELVAAITWRGGRTYYGDSVKGRFTISRDHAKNTVYLQMKRVKPEDTAVYFCAADRYGDLYDYWGQGTQVTVSS”, the “polyreactivity (PSR sort gate)” value was “high polyreactivity”. In the case of “QVQLVESGGGLVQAGGSLLLSCAASGIIFRYYAMGWYRQAPGKERELVADISSDGGTYYADSVKGRFTISLDNATNTVYLQMNSLKPEDTAVDYCAADYQFYWHYYYWGQGTQVTVSS”, the “polyreactivity (PSR sort gate)” value was “high polyreactivity”. For “QVQLVESGGGLVQAGGSLLLSCAASGLTFVANAMGWYSQAPGKERELVARISSSGGSTYYADSVKGRFTISRDNAKNTVYLQMNSLKPEDTAVYYCTARAVRWYYSMNYWGQGTQVTVSS”, the “polyreactivity (PSR sort gate)” value was “high polyreactivity”. In the case of “QVQLVESGGGLVQAGGSLLLSCAASGLTFYPNAMGWYRQAPGKERELVAAISSSGDSTYSADSVKVRFTISRDNAKNTVYLQMNSLKPEDTAVYYCAADLGYYNARWYEYWGQGTQVTVSS”, the “polyreactivity (PSR sort gate)” value was “high polyreactivity”.
